Assay results reported in paper PMC11646347.

B1: C-reactive protein, P02741 19-224 (natural protein)
chain: QTDMSRKAFVFPKESDTSYVSLKAPLTKPLKAFTVCLHFYTELSSTRGYSIFSYATKRQDNEILIFWSKDIGYSFTVGGSEILFEVPEVTVAPVHICTSWESASGIVEFWVDGKPRVRKSLKKGYTVGAEASIILGQEQDSFGGNFEGSQSLVGDIGNVNMWDFVLSPDEINTIYLGGPFSPNVLNWRALKYEVQGEVFTKPQLWP

How the values were obtained:
streptavidin = streptavidin (UniProt P22629); assay: native MS; native CZE online with ESI and a Q-Exactive UHMR Orbitrap; mixture of standard proteins and protein complexes; background electrolyte 25 mM ammonium acetate pH~7.0, sheath buffer 10 mM ammonium acetate pH~7.0; original sample (about 15 ng consumed) and a 50-fold dilution (0.1 ng CRP loaded)
[1] = target: T1, C-reactive protein, P02741; assay: as above; conditions: remark: other sources report otherwise
T1 chain: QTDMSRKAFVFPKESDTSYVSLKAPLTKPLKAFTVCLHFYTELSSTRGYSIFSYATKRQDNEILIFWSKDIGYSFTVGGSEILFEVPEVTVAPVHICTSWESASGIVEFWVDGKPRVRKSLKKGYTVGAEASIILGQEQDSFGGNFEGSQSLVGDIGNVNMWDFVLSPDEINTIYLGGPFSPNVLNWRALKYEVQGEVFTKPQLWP

| Molecule | stoichiometry N (streptavidin) | stoichiometry N [1] |
| --- | --- | --- |
| streptavidin (from UniProt P22629 25-183) (natural protein) | 4 |  |
| B1 |  | 5 |
